Results from paper PMC7144908.

Experiments:
[1] = molecular target: T1, SV40 large T antigen (Tag) (Simian virus 40, UniProt P03070 1-708); experiment: DSF
[2] = molecular target: T1, SV40 large T antigen (Tag); experiment: EMSA
[3] = molecular target: T1, SV40 large T antigen (Tag); experiment: EMSA; remark: listed apart in the source
[4] = molecular target: T1, SV40 large T antigen (Tag); experiment: DSF; remark: listed apart in the source
[5] = molecular target: T1, SV40 large T antigen (Tag); experiment: EMSA; remark: listed apart in the source
[6] = molecular target: T1, SV40 large T antigen (Tag); experiment: DSF; remark: listed apart in the source
[7] = molecular target: T1, SV40 large T antigen (Tag); experiment: DSF; remark: listed apart in the source
[8] = molecular target: T1, SV40 large T antigen (Tag); experiment: EMSA; remark: listed apart in the source
[9] = molecular target: T1, SV40 large T antigen (Tag); experiment: EMSA; remark: listed apart in the source
[10] = molecular target: SV40 large T antigen (Tag);Replication protein A (RPA) (Simian virus 40;human, UniProt P03070;P27694;P15927;P35244 1-708;1-616;1-270;1-121, |); experiment: EMSA
SV40 large T antigen (Tag);Replication protein A (RPA), sequence (P03070 whole entry, chain 1 of 4): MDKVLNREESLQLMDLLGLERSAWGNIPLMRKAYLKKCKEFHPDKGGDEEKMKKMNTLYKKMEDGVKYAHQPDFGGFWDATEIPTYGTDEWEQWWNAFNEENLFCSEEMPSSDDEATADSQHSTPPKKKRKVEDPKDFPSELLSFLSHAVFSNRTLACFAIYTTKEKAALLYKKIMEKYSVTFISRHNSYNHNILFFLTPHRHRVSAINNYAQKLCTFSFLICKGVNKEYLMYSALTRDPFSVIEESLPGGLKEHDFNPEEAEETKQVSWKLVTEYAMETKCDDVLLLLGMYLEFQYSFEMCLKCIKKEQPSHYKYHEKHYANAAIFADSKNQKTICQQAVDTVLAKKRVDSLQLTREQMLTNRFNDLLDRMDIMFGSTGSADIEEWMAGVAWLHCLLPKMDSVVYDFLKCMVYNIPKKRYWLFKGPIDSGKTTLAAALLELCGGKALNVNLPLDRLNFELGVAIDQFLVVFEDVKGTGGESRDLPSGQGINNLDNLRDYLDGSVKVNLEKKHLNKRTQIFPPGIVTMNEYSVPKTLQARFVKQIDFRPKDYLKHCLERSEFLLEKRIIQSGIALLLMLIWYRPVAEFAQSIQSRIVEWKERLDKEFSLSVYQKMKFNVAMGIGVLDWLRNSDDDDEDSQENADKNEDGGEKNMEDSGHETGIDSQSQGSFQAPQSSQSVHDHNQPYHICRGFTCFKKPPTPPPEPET
SV40 large T antigen (Tag);Replication protein A (RPA), sequence (P27694 whole entry, chain 2 of 4): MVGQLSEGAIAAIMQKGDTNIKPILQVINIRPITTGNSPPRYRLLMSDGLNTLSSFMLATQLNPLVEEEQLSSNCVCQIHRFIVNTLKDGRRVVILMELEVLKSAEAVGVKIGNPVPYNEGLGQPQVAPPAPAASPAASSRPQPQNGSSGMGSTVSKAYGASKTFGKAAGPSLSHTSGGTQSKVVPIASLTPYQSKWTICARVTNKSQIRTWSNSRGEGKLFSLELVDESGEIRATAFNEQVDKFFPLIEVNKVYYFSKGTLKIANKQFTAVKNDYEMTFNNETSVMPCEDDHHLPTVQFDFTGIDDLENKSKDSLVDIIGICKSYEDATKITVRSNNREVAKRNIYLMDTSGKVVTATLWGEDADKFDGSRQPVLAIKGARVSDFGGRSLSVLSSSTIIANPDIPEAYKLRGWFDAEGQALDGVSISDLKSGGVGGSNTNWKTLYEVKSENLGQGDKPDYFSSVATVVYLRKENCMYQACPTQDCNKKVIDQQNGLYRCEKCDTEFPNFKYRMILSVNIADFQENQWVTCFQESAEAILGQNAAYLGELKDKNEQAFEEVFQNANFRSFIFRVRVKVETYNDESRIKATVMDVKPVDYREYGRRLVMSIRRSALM
SV40 large T antigen (Tag);Replication protein A (RPA), sequence (P15927 whole entry, chain 3 of 4): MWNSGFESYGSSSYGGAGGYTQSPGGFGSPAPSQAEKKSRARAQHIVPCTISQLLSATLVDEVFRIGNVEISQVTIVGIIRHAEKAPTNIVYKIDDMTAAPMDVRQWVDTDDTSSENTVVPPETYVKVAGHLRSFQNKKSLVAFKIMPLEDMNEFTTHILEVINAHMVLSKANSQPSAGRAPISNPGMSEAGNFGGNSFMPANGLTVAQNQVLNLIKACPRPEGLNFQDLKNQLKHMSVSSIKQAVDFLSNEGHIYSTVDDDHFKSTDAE
SV40 large T antigen (Tag);Replication protein A (RPA), sequence (P35244 whole entry, chain 4 of 4): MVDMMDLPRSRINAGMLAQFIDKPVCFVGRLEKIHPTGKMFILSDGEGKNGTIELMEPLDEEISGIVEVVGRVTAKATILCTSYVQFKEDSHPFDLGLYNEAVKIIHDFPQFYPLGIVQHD

[11] = molecular target: T1, SV40 large T antigen (Tag); experiment: EMSA; remark: listed apart in the source
[12] = molecular target: Replication protein A (RPA) (human, UniProt P27694;P15927;P35244 1-616;1-270;1-121); experiment: EMSA
Replication protein A (RPA), sequence (P27694 whole entry, chain 1 of 3): as the sequence (P27694 whole entry, chain 2 of 4) above
Replication protein A (RPA), sequence (P15927 whole entry, chain 2 of 3): as the sequence (P15927 whole entry, chain 3 of 4) above
Replication protein A (RPA), sequence (P35244 whole entry, chain 3 of 3): as the sequence (P35244 whole entry, chain 4 of 4) above

[13] = molecular target: T1, SV40 large T antigen (Tag); experiment: EMSA; remark: listed apart in the source
[14] = molecular target: T1, SV40 large T antigen (Tag); experiment: AUC

T1 sequence (P03070 whole entry): as the sequence (P03070 whole entry, chain 1 of 4) above

B1: ssDNA(Site2) (ssDNA)
DNA: GCTCAGAGGCCGAGGCGGCCTCGGCCTCTGCATAAATAAAAAAAATTAGTCAGCCAT
Question: Which results are given for B1?
Answer: Kd [1]: 100 ± 30 nM; Kd [2]: 40 ± 5 nM; Kd [3]: 70 ± 10 nM; Kd [4]: 40 ± 7 nM; Kd [5]: 70 ± 8 nM; Kd [6]: 50 ± 10 nM; Kd [7]: 200 ± 60 nM; Kd [8]: 40 ± 10 nM; Kd [9]: 80 ± 30 nM

B2: dsDNA(Site2) (dsDNA)
DNA 1: B1 DNA
DNA 2: ATGGCTGACTAATTTTTTTTATTTATGCAGAGGCCGAGGCCGCCTCGGCCTCTGAGC
Question: Which Kd [2] does the source give for B2 here?
Answer: Its Kd is 100 ± 50 nM.

Question: What about the Kd [4] of the same binder?
Answer: Its Kd is 120 ± 110 nM.

Question: What about the Kd [5] of the same binder?
Answer: Its Kd is 220 ± 130 nM.

B3: ssDNA(GAPDH) (ssDNA)
DNA: CGACAGTCAGCCGCATCTTCTTTTGCGTCGCCAGCCGAGCCCTATAGTGAGTCGTAT
Question: Which results are given for B3?
Answer: binding result [10]: binds; Kd [11]: ~110 nM; Kd [12]: ~10 nM; Kd [13]: 80 ± 40 nM; Kd [5]: 40 ± 10 nM; Kd [6]: 10 ± 1 nM

B4: dsDNA(GAPDH) (dsDNA)
DNA 1: B3 DNA
DNA 2: ATACGACTCACTATAGGGCTCGGCTGGCGACGCAAAAGAAGATGCGGCTGACTGTCG
Question: B4 was tested. Which Kd [4] did it give?
Answer: The Kd was 5800 ± 4000 nM.

Question: Does GGTCGACTCTAGAGGATCAGATCTGGTACCTCTAGACTCGAGGCATGC (ssDNA) [ssDNA (gap) 48-mer] bind [14]?
Answer: Result: binds
